Consider 14 molecules from patent US20210388087A1 (Chugai, published 2021).

The labels stand for the following.
B1: H183/L072 VL N53G (antibody, name in Kabat numbering, V domains shown)
VH: QVQLVESGGGLVQPGRSLRLSCAASGFTFSNAWMHWVRQAPGKGLEWVAQIKDKGNAYAAYYAPSVKGRFTISRDDSKNSIYLQMNSLKTEDTAVYYCHYVHYASASTVLPAFGVDAWGQGTTVTVSS
VL: DIVMTQSPLSLPVTPGEPASISCQASQELVHMNRNTYLHWYQQKPGQAPRLLIYKVSGRFPGVPDRFSGSGSGTDFTLKISRVEAEDVGVYYCAQGTSVPFTFGQGTKLEIK
B2: H183/L072 VL N53V (antibody, name in Kabat numbering, V domains shown)
VH: QVQLVESGGGLVQPGRSLRLSCAASGFTFSNAWMHWVRQAPGKGLEWVAQIKDKGNAYAAYYAPSVKGRFTISRDDSKNSIYLQMNSLKTEDTAVYYCHYVHYASASTVLPAFGVDAWGQGTTVTVSS
VL: DIVMTQSPLSLPVTPGEPASISCQASQELVHMNRNTYLHWYQQKPGQAPRLLIYKVSVRFPGVPDRFSGSGSGTDFTLKISRVEAEDVGVYYCAQGTSVPFTFGQGTKLEIK
B3: H183/L072 VL P56A (antibody, name in Kabat numbering, V domains shown)
VH: QVQLVESGGGLVQPGRSLRLSCAASGFTFSNAWMHWVRQAPGKGLEWVAQIKDKGNAYAAYYAPSVKGRFTISRDDSKNSIYLQMNSLKTEDTAVYYCHYVHYASASTVLPAFGVDAWGQGTTVTVSS
VL: DIVMTQSPLSLPVTPGEPASISCQASQELVHMNRNTYLHWYQQKPGQAPRLLIYKVSNRFAGVPDRFSGSGSGTDFTLKISRVEAEDVGVYYCAQGTSVPFTFGQGTKLEIK
B4: H183/L072 VL N53K (antibody, name in Kabat numbering, V domains shown)
VH: QVQLVESGGGLVQPGRSLRLSCAASGFTFSNAWMHWVRQAPGKGLEWVAQIKDKGNAYAAYYAPSVKGRFTISRDDSKNSIYLQMNSLKTEDTAVYYCHYVHYASASTVLPAFGVDAWGQGTTVTVSS
VL: DIVMTQSPLSLPVTPGEPASISCQASQELVHMNRNTYLHWYQQKPGQAPRLLIYKVSKRFPGVPDRFSGSGSGTDFTLKISRVEAEDVGVYYCAQGTSVPFTFGQGTKLEIK
B5: H183/L072 VL N53P (antibody, name in Kabat numbering, V domains shown)
VH: QVQLVESGGGLVQPGRSLRLSCAASGFTFSNAWMHWVRQAPGKGLEWVAQIKDKGNAYAAYYAPSVKGRFTISRDDSKNSIYLQMNSLKTEDTAVYYCHYVHYASASTVLPAFGVDAWGQGTTVTVSS
VL: DIVMTQSPLSLPVTPGEPASISCQASQELVHMNRNTYLHWYQQKPGQAPRLLIYKVSPRFPGVPDRFSGSGSGTDFTLKISRVEAEDVGVYYCAQGTSVPFTFGQGTKLEIK
B6: H183/L072 VL P56D (antibody, name in Kabat numbering, V domains shown)
VH: QVQLVESGGGLVQPGRSLRLSCAASGFTFSNAWMHWVRQAPGKGLEWVAQIKDKGNAYAAYYAPSVKGRFTISRDDSKNSIYLQMNSLKTEDTAVYYCHYVHYASASTVLPAFGVDAWGQGTTVTVSS
VL: DIVMTQSPLSLPVTPGEPASISCQASQELVHMNRNTYLHWYQQKPGQAPRLLIYKVSNRFDGVPDRFSGSGSGTDFTLKISRVEAEDVGVYYCAQGTSVPFTFGQGTKLEIK
B7: H183/L072 VL N53S (antibody, name in Kabat numbering, V domains shown)
VH: QVQLVESGGGLVQPGRSLRLSCAASGFTFSNAWMHWVRQAPGKGLEWVAQIKDKGNAYAAYYAPSVKGRFTISRDDSKNSIYLQMNSLKTEDTAVYYCHYVHYASASTVLPAFGVDAWGQGTTVTVSS
VL: DIVMTQSPLSLPVTPGEPASISCQASQELVHMNRNTYLHWYQQKPGQAPRLLIYKVSSRFPGVPDRFSGSGSGTDFTLKISRVEAEDVGVYYCAQGTSVPFTFGQGTKLEIK
B8: H183/L072 VL N53W (antibody, name in Kabat numbering, V domains shown)
VH: QVQLVESGGGLVQPGRSLRLSCAASGFTFSNAWMHWVRQAPGKGLEWVAQIKDKGNAYAAYYAPSVKGRFTISRDDSKNSIYLQMNSLKTEDTAVYYCHYVHYASASTVLPAFGVDAWGQGTTVTVSS
VL: DIVMTQSPLSLPVTPGEPASISCQASQELVHMNRNTYLHWYQQKPGQAPRLLIYKVSWRFPGVPDRFSGSGSGTDFTLKISRVEAEDVGVYYCAQGTSVPFTFGQGTKLEIK
B9: H183/L072 VL N53H (antibody, name in Kabat numbering, V domains shown)
VH: QVQLVESGGGLVQPGRSLRLSCAASGFTFSNAWMHWVRQAPGKGLEWVAQIKDKGNAYAAYYAPSVKGRFTISRDDSKNSIYLQMNSLKTEDTAVYYCHYVHYASASTVLPAFGVDAWGQGTTVTVSS
VL: DIVMTQSPLSLPVTPGEPASISCQASQELVHMNRNTYLHWYQQKPGQAPRLLIYKVSHRFPGVPDRFSGSGSGTDFTLKISRVEAEDVGVYYCAQGTSVPFTFGQGTKLEIK
B10: H183/L072 VL N53T (antibody, name in Kabat numbering, V domains shown)
VH: QVQLVESGGGLVQPGRSLRLSCAASGFTFSNAWMHWVRQAPGKGLEWVAQIKDKGNAYAAYYAPSVKGRFTISRDDSKNSIYLQMNSLKTEDTAVYYCHYVHYASASTVLPAFGVDAWGQGTTVTVSS
VL: DIVMTQSPLSLPVTPGEPASISCQASQELVHMNRNTYLHWYQQKPGQAPRLLIYKVSTRFPGVPDRFSGSGSGTDFTLKISRVEAEDVGVYYCAQGTSVPFTFGQGTKLEIK
B11: H183/L072 VL N53M (antibody, name in Kabat numbering, V domains shown)
VH: QVQLVESGGGLVQPGRSLRLSCAASGFTFSNAWMHWVRQAPGKGLEWVAQIKDKGNAYAAYYAPSVKGRFTISRDDSKNSIYLQMNSLKTEDTAVYYCHYVHYASASTVLPAFGVDAWGQGTTVTVSS
VL: DIVMTQSPLSLPVTPGEPASISCQASQELVHMNRNTYLHWYQQKPGQAPRLLIYKVSMRFPGVPDRFSGSGSGTDFTLKISRVEAEDVGVYYCAQGTSVPFTFGQGTKLEIK
B12: H183/L072 VL N53L (antibody, name in Kabat numbering, V domains shown)
VH: QVQLVESGGGLVQPGRSLRLSCAASGFTFSNAWMHWVRQAPGKGLEWVAQIKDKGNAYAAYYAPSVKGRFTISRDDSKNSIYLQMNSLKTEDTAVYYCHYVHYASASTVLPAFGVDAWGQGTTVTVSS
VL: DIVMTQSPLSLPVTPGEPASISCQASQELVHMNRNTYLHWYQQKPGQAPRLLIYKVSLRFPGVPDRFSGSGSGTDFTLKISRVEAEDVGVYYCAQGTSVPFTFGQGTKLEIK
B13: H183/L072 VL N53Q (antibody, name in Kabat numbering, V domains shown)
VH: QVQLVESGGGLVQPGRSLRLSCAASGFTFSNAWMHWVRQAPGKGLEWVAQIKDKGNAYAAYYAPSVKGRFTISRDDSKNSIYLQMNSLKTEDTAVYYCHYVHYASASTVLPAFGVDAWGQGTTVTVSS
VL: DIVMTQSPLSLPVTPGEPASISCQASQELVHMNRNTYLHWYQQKPGQAPRLLIYKVSQRFPGVPDRFSGSGSGTDFTLKISRVEAEDVGVYYCAQGTSVPFTFGQGTKLEIK
B14: H183/L072 VL N53R (antibody, name in Kabat numbering, V domains shown)
VH: QVQLVESGGGLVQPGRSLRLSCAASGFTFSNAWMHWVRQAPGKGLEWVAQIKDKGNAYAAYYAPSVKGRFTISRDDSKNSIYLQMNSLKTEDTAVYYCHYVHYASASTVLPAFGVDAWGQGTTVTVSS
VL: DIVMTQSPLSLPVTPGEPASISCQASQELVHMNRNTYLHWYQQKPGQAPRLLIYKVSRRFPGVPDRFSGSGSGTDFTLKISRVEAEDVGVYYCAQGTSVPFTFGQGTKLEIK

This assay deals with T1, Human CD3eg linker (human).
T1 construct: Single-chain construct; also called recombinant human CD3
T1 chain: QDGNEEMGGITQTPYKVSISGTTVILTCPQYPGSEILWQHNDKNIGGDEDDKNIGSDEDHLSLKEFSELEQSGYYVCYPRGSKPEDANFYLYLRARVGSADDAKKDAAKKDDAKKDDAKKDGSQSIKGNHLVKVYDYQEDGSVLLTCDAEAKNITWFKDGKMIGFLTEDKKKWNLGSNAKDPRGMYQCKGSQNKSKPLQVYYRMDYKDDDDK
In words: SPR; fold vs parent H183/L072. A general note: Surface plasmon resonance follows binding to a sensor surface in real time, without labels.
Regarding B1, the “fold change of affinity” value worked out at 0.6 fold.
As to B2, the “fold change of affinity” value worked out at 0.3 fold.
Then B3, with 4.1 fold.
With B4, the “fold change of affinity” value is 1.4 fold.
For B5, the “fold change of affinity” value came to 0.6 fold.
As for B6, the figure is 3 fold.
As for B7, the “fold change of affinity” value was 0.9 fold.
Then B8, with 0.7 fold; and B9, with 1.2 fold.
Then B10, with 0.4 fold; and B11, with 0.9 fold; and B12, with 0.6 fold.
On to B13, for which the “fold change of affinity” value amounted to 0.8 fold.
As for B14, the figure is 1.8 fold.
